The values that follow come from publication PMC2909130 (Biochemistry, 2010).

This data set concerns the molecule itself. The data set is described as follows: crystal structure.

B1: ArsD109/C12A/C13A/C39S (domain or fragment, Escherichia coli (plasmid R773), UniProt P46003 1-109, looked up)
chain: MKTLMVFDPAMAASTGVCGTDVDQALVDFSTDVQWLKQSGVQIERFNLAQQPMSFVQNEKVKAFIEASGAEGLPLLLLDGETVMAGRYPKRAELARWFGIPLDKVGLAP
For the protein B1, the binding result is “binds”.

B2: ArsD109 (ArsD arsenic metallochaperone of plasmid R773, residues 1-109, wild type) (domain or fragment, Escherichia coli (plasmid R773), UniProt P46003 1-109, looked up)
chain: MKTLMVFDPAMCCSTGVCGTDVDQALVDFSTDVQWLKQCGVQIERFNLAQQPMSFVQNEKVKAFIEASGAEGLPLLLLDGETVMAGRYPKRAELARWFGIPLDKVGLAP
Turning to B2, the binding result is “binds”.
